# B1: GST fusion protein containing the kinase domain of Src (residues 249-536) (domain or fragment, UniProt P12931 249-536, looked up)
# chain: PTSKPQTQGLAKDAWEIPRESLRLEVKLGQGCFGEVWMGTWNGTTRVAIKTLKPGTMSPEAFLQEAQVMKKLRHEKLVQLYAVVSEEPIYIVTEYMSKGSLLDFLKGETGKYLRLPQLVDMAAQIASGMAYVERMNYVHRDLRAANILVGENLVCKVADFGLARLIEDNEYTARQGAKFPIKWTAPEAALYGRFTIKSDVWSFGILLTELTTKGRVPYPGMVNREVLDQVERGYRMPCPPECPESLHDLMCQCWRKEPEERPTFEYLQAFLEDYFTSTEPQYQPGENL
# B2: GST-RIL (reversion-induced LIM) (natural protein, human, UniProt P50479 1-330, looked up)
# chain: MPHSVTLRGPSPWGFRLVGGRDFSAPLTISRVHAGSKAALAALCPGDLIQAINGESTELMTHLEAQNRIKGCHDHLTLSVSRPEGRSWPSAPDDSKAQAHRIHIDPEIQDGSPTTSRRPSGTGTGPEDGRPSLGSPYGQPPRFPVPHNGSSEATLPAQMSTLHVSPPPSADPARGLPRSRDCRVDLGSEVYRMLREPAEPVAAEPKQSGSFRYLQGMLEAGEGGDWPGPGGPRNLKPTASKLGAPLSGLQGLPECTRCGHGIVGTIVKARDKLYHPECFMCSDCGLNLKQRGYFFLDERLYCESHAKARVKPPEGYDVVAVYPNAKVELV
# B3: MBP-tagged RIL (natural protein, human, UniProt P50479 1-330, looked up)
# chain: MPHSVTLRGPSPWGFRLVGGRDFSAPLTISRVHAGSKAALAALCPGDLIQAINGESTELMTHLEAQNRIKGCHDHLTLSVSRPEGRSWPSAPDDSKAQAHRIHIDPEIQDGSPTTSRRPSGTGTGPEDGRPSLGSPYGQPPRFPVPHNGSSEATLPAQMSTLHVSPPPSADPARGLPRSRDCRVDLGSEVYRMLREPAEPVAAEPKQSGSFRYLQGMLEAGEGGDWPGPGGPRNLKPTASKLGAPLSGLQGLPECTRCGHGIVGTIVKARDKLYHPECFMCSDCGLNLKQRGYFFLDERLYCESHAKARVKPPEGYDVVAVYPNAKVELV
# Assays:
# Assay in all cases: pull-down
# MBP-tagged RIL = target: B3
# [1] = target: pY419 Src (MBP-Src phosphorylated at Y419) (UniProt P12931 1-536, phosphotyrosine at 419)
# [2] = target: maltose-binding protein (MBP)-tagged Src protein (UniProt P12931 1-536)
# GST-tagged Src = GST-tagged Src (UniProt P12931 1-536)
binder,measurement,setting,value
B1,binding result,MBP-tagged RIL,binds
B2,binding result,[1],binds
same,binding result,[2],binds
B3,binding result,GST-tagged Src,binds
